± gives the uncertainty stated by the source.
Experiment: amyloid nucleation score (Sup35N fusion, yeast selection) (log enrichment); library NNK2; higher = more nucleation; inactive = no reads after selection
How it was run: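 Random libraries were run with three technical output replicates. In each, psi-negative yeast expressing Sup35N fused to peptides of 20 random codons were induced 24 hours with 100 μM copper sulfate and grown 7 days at 30°C on medium lacking adenine and uracil, and input and output plasmid inserts were Illumina-sequenced. The nucleation score is the DiMSum log enrichment of output over input reads, centred on the mode score of non-aggregating sequences, and sequences under 100 input reads were excluded.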

In order of falling amyloid nucleation score:
1. SQPSDWVYFNVGYCCVLMCL  9.398 ± 0.027
2. SIVMFVCDLRNQPTAIFRDR  8.256 ± 0.074
3. SSSWLCYTSFWYVNHSRRSL  8.051 ± 0.043
4. SLLFVNNWFSVCRKASCIGN  7.787 ± 0.052
5. SISIACCA  6.991 ± 0.031
6. SITMFQCQRVCASLQYVTGT  6.968 ± 0.063
7. SLNSGFRDPIYWSVLRRSPS  6.81 ± 0.086
8. SLRWDYLHLVWRHAEGGYGK  6.678 ± 0.038
9. STCVGEYLHCSLSCAGMVLL  6.593 ± 0.049
10. SMIDGWGRVFHYAVVQISMN  6.158 ± 0.032
11. SLFCVYYNDSSLLSYSVWQI  5.75 ± 0.06
12. SRTIGTMQLVTMNWCFRKEA  5.37 ± 0.045
13. SFPMLVISVS  4.7 ± 0.068
14. SMPPRLQSKLPRDFSAQSVK  4.63 ± 0.1
15. SLQRIKGNFQPMVFAINMFN  4.6 ± 0.11
16. SKYMRFGDTFLFARMHGKGD  4.49 ± 0.048
17. SQVSHLRLDVPVAEI  4.04 ± 0.078
18. SLGIVNSHIFAMWTFSSMGA  3.74 ± 0.065
19. SHRPWVWGQNISMKYRSVLK  3.7 ± 0.057
20. SSMQPHLVSSVL  3.7 ± 0.07
21. SLFITASYYNFRG  3.62 ± 0.049
22. SQSHNIYQ  3.46 ± 0.14
23. SRRFFQKIRLWGMTDQQKGM  3.08 ± 0.072
24. SRLLIREYNLVSNDKFIYFV  3.01 ± 0.073
25. SRLGFMAKPLMDVS  2.79 ± 0.09
26. SMLESNFRGFFYQ  2.56 ± 0.15
27. SLWVASGQSFSDSRQRNVAG  2.27 ± 0.19
28. SRCNISTRLLATLDVLQEKE  2.25 ± 0.08
29. SSIDMSCQHHLVALIRGFKE  2.24 ± 0.2
30. SKGSTGLRIVLFHFTCVVID  1.99 ± 0.17
31. SSMERCEHLQVLEAFLWSVE  1.87 ± 0.16
32. SIGPLLHMCSFVFLEVRIIF  1.83 ± 0.15
33. SNFETDTL  1.82 ± 0.14
34. SSLSGYGSYGLLPRWLRLVT  1.81 ± 0.4
35. SLDCPGFGRAYV  1.62 ± 0.16
36. SLSDELAERNSRCTRLTPWM  1.61 ± 0.23
37. SGWVLGYSCRKLLLGGLSRG  1.48 ± 0.31
38. SKGRYAYRRMGAYLCSD  1.48 ± 0.43
39. SIGLLTGKWLPSLMVLYLLV  1.29 ± 0.44
40. SHGEKSVDDEGSGIGERWQC  1.27 ± 0.33
41. SQLYE  1.23 ± 0.44
42. SGNIAMFVPSVRWSVRDYCC  1.06 ± 0.14
43. SSFIRGLTSKAG  1.05 ± 0.57
44. SRERPHFPLLIPGENMIMLM  1.04 ± 0.1
45. SSMLANSMWRSFSVSYGTML  0.929 ± 0.36
46. SSRHNPIWLRTAMDGDLGFA  0.864 ± 0.5
47. SPLHRDCGNQLTE  0.814 ± 0.17
48. SRDVSLRYCTWCPGVN  0.789 ± 0.22
49. SLTTLCNLTIWDH  0.756 ± 0.53
50. SSTYIERGLSHGKDRT  0.731 ± 0.46
51. SGSGSTAILGKTSGHVCLAI  0.713 ± 0.58
52. SLDETSPLVWEWEICSDLYN  0.68 ± 0.56
53. SNMIHDEIWLMGEDSDF  0.674 ± 0.49
54. SGDGVLVSFSKDSGFQSFGS  0.673 ± 0.2
55. SSSRS  0.66 ± 0.62
56. SSYGLVKR  0.655 ± 0.35
57. SKRFRLTIDGIGVYRW  0.649 ± 0.22
58. SRRDGCGAPSKTSNWA  0.64 ± 0.8
59. SGCGCGLGMPTCRRSVRG  0.631 ± 0.19
60. SNPTSVQVRFLLHILLKSVL  0.629 ± 0.52
61. SPLSSKDCYGKTERSVWHVM  0.588 ± 0.4
62. SSSSPHLDNLLGSGRLEIPS  0.56 ± 0.56
63. STFLCVLTGMCCMARMS  0.54 ± 0.64
64. SLGNQIQVCISLPSMPVTPW  0.512 ± 0.66
65. SSRRV  0.497 ± 0.56
66. STELYARMVKCCVGIADYTD  0.491 ± 0.66
67. SLTTLTAVHSCFRLNAWLYF  0.477 ± 0.29
68. SLILDNVDEGQSFSMGVCLG  0.462 ± 0.66
69. SGPRLTYSTLSKICALVQAE  0.457 ± 0.34
70. SGLEEYLSHLMLQVRFQESR  0.432 ± 0.57
71. SSTFCS  0.405 ± 0.64
72. SLKMRNRWGIDVVE  0.386 ± 0.23
73. SNRHSVRKAAWIWGRDFLRA  0.346 ± 0.38
74. SRVIVGLWYDGRVKPLELCM  0.342 ± 0.62
75. SSEEFNVCYYGDPYKSVRTR  0.341 ± 0.47
76. SNSCHNAATRGYR  0.315 ± 0.74
77. SFSVYRFVGTLSGYADLGLG  0.302 ± 0.37
78. SGMWSNRDEALSCWRG  0.29 ± 0.54
79. SLSVI  0.264 ± 0.65
80. SLDQFSLSPKAVQRVACVAQ  0.251 ± 0.54
81. SLGPRRSCCTIWKVWAYAGS  0.241 ± 0.42
82. SRTRGTLDGS  0.241 ± 0.36
83. SFGYPPVCLLFSHLHRRFLL  0.237 ± 1
84. SRLRRKEYGDWFFYYGWSTN  0.237 ± 1
85. SRPDLHHAKALYFNDLRRE  0.232 ± 0.27
86. SFLWCPGG  0.221 ± 0.33
87. SSSIRVRTDEHMEVAGKRLS  0.217 ± 0.27
88. SRYGRTEGRFFVRRRGMHHG  0.21 ± 0.32
89. SLIGTRLIGAAGISSVKRLY  0.208 ± 0.46
90. SFMGLAMHRSLSSCSVRSWY  0.199 ± 0.53
91. SRFRIMSNLGVKWGPCRVYL  0.164 ± 0.8
92. SGHTRVGDFSF  0.158 ± 0.3
93. SLKTVAFHSEMFFCSTLVDM  0.153 ± 0.8
94. SMPLASSMSKHNHWHLV  0.13 ± 0.35
95. SRNIMLGWVPWYYCWKAPSI  0.034 ± 0.63
96. SLSNCSTWTSF  0.02 ± 1
97. SICRPIMSESWIASPCVLVG  -0.012 ± 0.24
98. SGLVWVTN  -0.018 ± 1.1
99. SRSVLSNSDTPTNNAVNCVA  -0.027 ± 0.56
100. SRKLRLVRGFWG  -0.067 ± 0.62
101. SRLKIFIPNVFL  -0.067 ± 1.1
102. SILALTE  -0.072 ± 1.1
103. SPFNRLHY  -0.101 ± 1.1
104. SFWNQKYCA  -0.117 ± 0.4
105. SPGRLFATEFVVVYVKYHSP  -0.121 ± 0.37
106. SKVNVVVDNMG  -0.125 ± 0.39
107. SGSRYAIVSYG  -0.139 ± 0.53
108. SKDLSISQWSLGWLCHVWHT  -0.153 ± 0.79
109. SFSILLEDTSS  -0.162 ± 0.76
110. SSLTANGNNSMT  -0.173 ± 0.63
111. SMYVINRSI  -0.198 ± 0.31
112. SRNISQKLHTYMTYGSKVGY  -0.229 ± 0.32
113. SLSTSFLYDFWVLNSADPRY  -0.258 ± 0.76
114. SSFRVELHRCFVKVFLLLY  -0.266 ± 1
115. SLLNQLIKRNKSNAYVVHGI  -0.275 ± 0.4
116. SSWLRINRIYLYEQL  -0.305 ± 1
117. SLGSSWCNSDLLAL  -0.311 ± 1.1
118. SQFLEYTFEYFSGFPGRLVE  -0.316 ± 0.42
119. SGYWNGVIRTKSNNDTVYVK  -0.395 ± 0.22
120. SLVSFFVIKRSYFSTRLCTG  -0.399 ± 0.61
121. SNPDSLVLAGMLARMAYRKL  -0.423 ± 0.61
122. SILFNVARGCAGVPNLKSYS  -0.43 ± 0.56
123. SSTIITSLTHFCSTGDWEVV  -0.434 ± 0.24
124. SRLISFLRSRQDDSQISLGW  -0.445 ± 0.49
125. SRVSLHNES  -0.453 ± 1.1
126. SLKANYGWLISNAWDMFHLG  -0.467 ± 0.74
127. SPSDSAL  -0.501 ± 0.64
128. SIRRTLVGQRAHEGKFWYGV  -0.504 ± 0.63
129. SNGPW  -0.512 ± 0.76
130. SLVIKTLMIFAYSGATVSRG  -0.545 ± 0.64
131. SILNDESFILLDILMVHFEY  -0.547 ± 0.35
132. SGIHEIFESVFFNTYFRRMT  -0.549 ± 1
133. SGLLSFLTHSLFEFLSNKQW  -0.557 ± 1.1
134. SGLVVMRLLFLRGY  -0.558 ± 0.54
135. SKLRYNFR  -0.573 ± 0.32
136. SKTLAGIWSDGVHAEFDIKG  -0.573 ± 0.79
137. SSKSCVPQVLINILDDSTVN  -0.632 ± 0.79
138. SMICGFKLASHSVG  -0.65 ± 0.45
139. SGTMSLLKMLLEYKLLT  -0.678 ± 0.76
140. SFTGL  -0.684 ± 0.44
141. SSMSLWFMHYRNSKSCL  -0.721 ± 0.33
142. SICASWNRINGIVTKLGWSE  -0.739 ± 0.32
143. SKGYYTLKVTYWTFR  -0.745 ± 0.44
144. SHFVCMWFYYISTWKCS  -0.766 ± 0.48
145. SSLTPHWRVRKYDWYSIGSG  -0.8 ± 0.41
146. SLLYRD  -0.817 ± 0.48
147. SFKHLT  -0.853 ± 1.1
148. SGSGGSSLLFTIGEQGRRRI  -0.876 ± 0.45
149. SSDYGIQPCFTTTSLLLLFN  -0.914 ± 0.48
150. SGCCR  -0.925 ± 1
151. SRCVCMFTEIPATAFPMKVR  -0.94 ± 0.64
152. SGAQA  -0.966 ± 0.78
153. STASLHGVMLGMRLKNPLGV  -0.97 ± 0.63
154. SMTNNMGLLE  -0.979 ± 0.76
155. SSMSNIEE  -1.15 ± 0.42
156. SSYTLGFFRCNRFWCLCIDC  -1.2 ± 0.56
157. SSNLKYGKSIFGNSFLQSVF  -1.27 ± 0.62
158. SRICLLTYMGSIINRDVSVY  -1.6 ± 0.55
159. SIANLPFISLL  -1.62 ± 0.54
160. SISALLFIPAHRTIMAG  -1.69 ± 1.1

In the case of SIHDVVYLGPVVVAKDSSVF, the amyloid nucleation score is reported as “inactive”.
For SIIWQRLLGIFNFLGAPESM, the amyloid nucleation score was “inactive”.
In the case of SIQLRVK, the amyloid nucleation score is reported as “inactive”.
In the case of SKPCGKVIYWKDRLSKLSEK, the amyloid nucleation score is reported as “inactive”.
With SLGTFVRHTEWSSKNEAFPV the amyloid nucleation score was “inactive”.
With SLSTHIFLSSGLSLTFKKRS the amyloid nucleation score was “inactive”.
In the case of SNITDWVTTKVRMEKRPVVQ, the amyloid nucleation score is reported as “inactive”.
With SQILTMWYLVIYYMSNRFGG the amyloid nucleation score was “inactive”.
In the case of SRLYGLDCRILFVNFYTKLP, the amyloid nucleation score is reported as “inactive”.
With SRNNIAQFCSLHAN the amyloid nucleation score was “inactive”.
For SSTEMSFYMIHKIFAVY, the amyloid nucleation score was “inactive”.
For SSYNCPHINVCSPSAPNTQM, the amyloid nucleation score was “inactive”.
